In the DeepSol protein solubility set:

Assay: soluble on expression in E. coli; label from the status in PepcDB or PDB records

Question: For “KSIVKIRNRMAAETQTLNFGPEWLRALSSGGSITSPPLSPALPKYKLADYRYGREEMLALFLKDNKIPSDLLDKEFLPILQEEPLPPLALVPFTEEEQRNFSMSVNSAAVLRLTGRGGGGTVVGAPRGRSSSRGRGRGRGECGFYQRSFDEVEGVFGRGGGREMHRSQSWEERGDRRFEKPGRKDVGKKNGYYCMYSPVLLLGQPLCQGRPNFEEGGPTSVGRKHEFIRSESENWRIFREEQNGEDEDGGWRLAGSRRDGERWRPHSPDGPRSAGWREHMERRRRFEFDFRDRDDERGYRRVRSGSGSIDDDRDSLPEWCLEDAEEEMGTFDSSGAFLSLKKVQKEPIPEEQEMDFRPVDEGEECSDSEGSHNEEAKEPDKTNKKEGEKTDRVGVASEETPQTSSSSARPGTPSDHQSQEASQFERKDEPKTEQTEKAEEETRMENSLPAKVPSRGDEMVADVQQPLSQIPSDTASPLLILPPPVPNPSPTLRPVETPVVGAPGMGSVSTEPDDEEGLKHLEQQAEKMVAYLQDSALDDERLASKLQEHRAKGVSIPLMHEAMQKWYYKDPQGEIQGPFNNQEMAEWFQAGYFTMSLLVKRACDESFQPLGDIMKMWGRVPFSPGPAPPPHMGELDQERLTRQQELTALYQMQHLQYQQFLIQQQYAQVLAQQQKAALSSQQQQQLALLLQQFQTLKMRISDQNIIPSVTRSVSVPDTGSIWELQPTASQPTVWEGGSVWDLPLDTTTPGPALEQLQQLEKAKAAKLEQERREAEMRAKREEEERKRQEELRRQQEEILRRQQEEERKRREEEELARRKQEEALRRQREQEIALRRQREEEERQQQEEALRRLEERRREEEERRKQEELLRKQEEEAAKWAREEEEAQRRLEENRLRMEEEAARLRHEEEERKRKELEVQRQKELMRQRQQQQEALRRLQQQQQQQQLAQMKLPSSSTWGQQSNTTACQSQATLSLAEIQKLEEERERQLREEQRRQQRELMKALQQQQQQQQQKLSGWGNVSKPSGTTKSLLEIQQEEARQMQKQQQQQQQHQQPNRARNNTHSNLHTSIGNSVWGSINTGPPNQWASDLVSSIWSNADTKNSNMGFWDDAVKEVGPRNSTNKNKNNASLSKSVGVSNRQNKKVEEEEKLLKLFQGVNKAQDGFTQWCEQMLHALNTANNLDVPTFVSFLKEVESPYEVHDYIRAYLGDTSEAKEFAKQFLERRAKQKANQQRQQQQLPQQQQQQPPQQPPQQPQQQDSVWGMNHSTLHSVFQTNQSNNQQSNFEAVQSGKKKKKQKMVRADPSLLGFSVNASSERLNMGEIETLDDY”, which “soluble on expression in E. coli” value is on record?
Answer: soluble

Question: Which “soluble on expression in E. coli” value does the source give for “KTKLNITMEEDTEVLDEVVVVGYGAQKKESVVGAISQVSSKELLKSPAANISQAIAGKISGVITSQTSGAPGADDMKIYIRGRASFAGDNQPLILVDGVEREFSQIAPDDIESISTLKDASATAVYGVRGANGVMLITTKRGKEQK” here?
Answer: not soluble

Question: For “KTMLKIKMAEDAEMIDEVVVTALGIKREEKALGYAVQKVGGSKLSTVKPVNIATSLTGKVAGLNVTNSTEFNTAPTLKLRGETPLLVVDGVPYSNISLNDIAADDIESVDVLKGATASALYGARGGSGAIMVTTKKGSQEG”, which “soluble on expression in E. coli” value is on record?
Answer: not soluble

Question: With “KVITRGEATRLINKEDAVVVDLRQRDDFRKGHIAGAINLLPSDIKANNVGELEKHKSQPIIVVDGSGMQAQEPASALNKAGFEKVFVLKEGIAGWSGENLPLVRG” as the sequence, how does the “soluble on expression in E. coli” value read?
Answer: soluble

Question: For “KYRHEYYQKPEEVVVTVFAKGIPKQNVNIDFGEQILSVVIEVPGEDAYYLQPRLFGKIIPDKCKYEVLSTKIEICLAKADIITWASLEHG”, which “soluble on expression in E. coli” value is on record?
Answer: soluble

Question: Which “soluble on expression in E. coli” value does the source give for “LALQAKQYGDFDRYVLALSWQTGFCQSQHDRNRNERDECRLQTETTNKADFLTVHGLWPGLPKSVAARGVDERRWMRFGCATRPIPNLPEARASRMCSSPETGLSLETAAKLSEVMPGAGGRSCLERYEYAKHGACFGFDPDAYFGTMVRLNQEIKESEAGKFLADNYGKTVSRRDFDAAFAKSWGKENVKAVKLTCQGNPAYLTEIQISIKADAINAPLSANSFLPQPHPGNCGKTFVIDKAGY” here?
Answer: soluble

Question: With “LAVLMVLAVNFGTVTTFAAMSDEAESISVNKPVTDNLSSVNDVKYYEVELPAPGKVNLSFSHANLERTYVYWKVTMFDSVENEVLYFESTGTNTDGKSMSVYLDKGTYYVRVKSEGYWYSTTDYTLCVNYTENKGEYEIEPNYSKELATEISVNKPVIGNHRVKGDTDFYKFTISEPGKVDLSFNHANLERTYVYWKVTMFDSVENIVLYFESTGTNTTGKSMNAYLSEGTYYIRVTTDDYWHSTADYTLCVNYTENQGEYEIEPNNSQDNATLIEVDEPVTGNLRTSSDVDYYRFVMPDSGKVYLGFNHPNLERTYVYWKVSLYDANGNRLYQLNSRGTDTVGKSDEIKIGSGTYYVKVEYEGYWHSSADYSLTVNTVGGIPKVKVFLNGKRIRFDQPPIIQNGRTLVPLRAIFEAMNATVSWDDKTKTVTAKKGDTTIVMTIGNKTMKKNGVAIELDVPPQIVNGRTLVPARAVAESFGAKVDWDGSTRTVTITEGN” as the sequence, how does the “soluble on expression in E. coli” value read?
Answer: not soluble

Question: Which “soluble on expression in E. coli” value does the source give for “LEGTAGTITSNEWSSPTSPEGSTASGGSQALDKPIDNDAEGVWSPDIEQSFQEALAIYPPCGRRKIILSDEGKMYGRNELIARYIKLRTGKTRTRKQVSSHIQVLARRKAREIQAKLKDQAAKDKALQSMAAMSSAQIISATAFHSSMALARGPGRPAVSGFWQGALPGQAGTSHDVKPFSQQTYAVQPPLPLPGFESPAGPAPSPSAPPAPPWQGRSVASSKLWMLEFSAFLEQQQDPDTYNKHLFVHIGQSSPSYSDPYLEAVDIRQIYDKFPEKKGGLKDLFERGPSNAFFLVKFWADLNTNIEDEGSSFYGVSSQYESPENMIITCSTKVCSFGKQVVEKVETEYARYENGHYSYRIHRSPLCEYMINFIHKLKHLPEKYMMNSVLENFTILQVVTNRDTQETLLCIAYVFEVSASEHGAQHHIYRLVKE” here?
Answer: soluble

Question: With “LEMKGKRMSVTAVMRELEKEENLYRRSGGGITLSGGEPLAQPEFARELLKACKAKGWHTAIETSGFTTKAVIDEVFPYVDLALTDIKAIDPEIHERNTGVNNRVILENLLRISFLTKVVVRIPVIPGVNDNSQEIHNIAEFARLMQNVDTIHLLPYHSFGENKYNLLGRQYPMGDTKSIEESQMAELKAMVESLGFNCHIGG” as the sequence, how does the “soluble on expression in E. coli” value read?
Answer: not soluble

Question: Which “soluble on expression in E. coli” value does the source give for “LEYLKNNCKVIIVDMHAEATSEKCALAWYLDGRVSCVLGTHTHVQTADERILPFGTAFISDVGMTGPYDGIIGVNREIVIQKFLTHMPVRFEVATGRVQFNAVYLEIDEKTGKTTGIERIYEILEV” here?
Answer: not soluble

Question: For “LFNYKPGTSVFSIATAGCNFKCKHCQNWEISQSLPEEVPFSELTPEDVVELAKNYLCEGIAYTYTEPTIFYEFMQETAKLAKKHDLFNVMVTNGYIEKEPLKKLEIDAMNIDIKGNSEFYKKICLAELEPVLETCRLAKKLGIHIEITNLVVPTYNDNPKYIESIINFVKDELGVDTPLHFTAFYPHYKLTSVPSTRMETIKKARDMALNAGLHYVYAGNV”, which “soluble on expression in E. coli” value is on record?
Answer: not soluble

Question: With “LGSLLEVAIPKPGNVSRYKDFEDLTFYHFLFGNTALIGPYFEATERGILLKEGKINESEVGIGELIRMAVAATKKYQDANPNFGIIVLSIPLIVSLSSGASIEDAGKMATRLISKSTPLDTVELYKAIRIANPKGIPRGVKYDVYSDTSFEDLVRDGINLYKLAEISCERELVFCEWLNNYDLTYETLKLLENNLEKEDLEGKVRKTFVVLLSKYEDTLIIRKAGIQEAKKVKEMATQLLKNKITEEEFERFMYEKRDLRNPGSLADIMATAL” as the sequence, how does the “soluble on expression in E. coli” value read?
Answer: not soluble

Question: For “LKRLFWPVLLVVLGFGTYEGAQRLLPYADRPIARINVQGDLSYISQQAVQQRIAPYVASSFFKIDLAAMRTELEQMPWIAHAEVRRVWPDQVVIRLEEQLPVARWGDEALLNNQGQAFTPRELSNYEHLPQLFGPQRAQQQVMQQYQVLSQMLRPMGFSIVRLELRERGSWFLTTGAGSAGPGIELLLGRDHLVEKMRRFIAIYDKTLKEQITNIARVDLRYSNGLAVGWREQAAATTDKPAVAKN”, which “soluble on expression in E. coli” value is on record?
Answer: not soluble

Question: Which “soluble on expression in E. coli” value does the source give for “LKSESAEKTREVLWQQYYASNPPDHAVLEVLATPVREALLARFGQHQGSVVPAIDLPELRSVLQQFDSFGKRWEAILLQVLEGIKPNESQVGLPYLSELINKELMILLPSNS” here?
Answer: soluble

Question: Which “soluble on expression in E. coli” value does the source give for “LLLLLPQGGDVRGGPGVREPGQAPQDRGGRDRLLGRGERESPGSDASGGERYSSGGGDGGDGDGGSGGGGDGEEGEGGEEGDEGDGDEGGSGGDESGSGGGPRSMPLSTEGGGSHHKVSVSPVVHVRGLCESVVEADLVEALEKFGTICYVMMMPFKRQALVEFENIDSAKECVTFAADVPVYIAGQQAFFNYSTSKRITRPGNTDDPSGGNKVLLLSIQNPLYPITVDVLYTVCNPVGKVQRIVIFKRNGIQAMVEFESVLCAQKAKAALNGADIYAGCCTLKIEYARPTRLNVIRNDNDSWDYTKPYLGRRDRGKGRQRQAILGDHPSSFRHDGYGSHGPLLPLPSRYRMGSRDTPELVAYPLPQASSSYMHGGSPSGSVVMVSGLHQLKMNCSRVFNLFCLYGNIEKVKFMKTIPGTALVEMGDEYAVERAVTHLNNVKLFGKRLNVCVSKQHSVVPSQIFELEDGTSSYKDFAMSKNNRFTSAGQASKNIIQPPSCVLHYYNVPLCVTEETFTKLCNDHEVLPFIKYKVFDAKASAKTLSGLLEWKCKTDAVEALTALNHYQIRVPNGSNPYTLKLCFSTSSHL” here?
Answer: soluble

Question: Which “soluble on expression in E. coli” value does the source give for “LLSKKEIITVNVAPGHHFNDVITVKGMADEEIDKTTCGDLKFHLTEKQENLEQKQIFLKNFDDGAGEDLYTSITISLSEALTGFEKFLTKTFDDRLLTLSVKPGRVVRPGDTIKIANEGWPILDNPHGRCGDLYVFVHIEFPPDNWFNEKSELLAIKTNLPSSSSCASHATVNTEDDSNLTNNETISNFRIIHTDDLPEGIRPFKPEAQDSAHQKARSSYCCIQ” here?
Answer: not soluble

Question: Which “soluble on expression in E. coli” value does the source give for “LNDPLDSGRFSRKQLDKKYKHAGDFGISDTKKNRETLTKFRDAIEEHLSDKDTVEKGTYRREKGSKVYFNPNTMNVVIIKSNGEFLSGWKINPDADNGRIYLETGEL” here?
Answer: soluble

Question: For “LPAFFKTFDRQEDFMVDVFRLNIDALKENYLPLARFFENLNENTGNESSVILETSKSGMPNFRVKKGEHTFFVHSPYDPRTEAIRWAEKIDLKGFDTIAVLGIGCGYHIEELEKKYPDKNKIVIEPDRNVFLKLLNTRDITHLISSKNILFIISDNTEEIAKVFLLLREEGEIDSVEFNELLSYRKVYEDWWLELKKEYIKFARLHQINTNTSVFFAEAWLTNLFEGMWQLTKSVHIKEYKSAFANIPAIVVSAGPALNKNVHLLKELYNKAVIISAGSALNILESRGITPHIMVGVDGGEAESRIFNNVKSNEIYFAYSLSVHYDGLKNYSGPKIYFKTNVLGYGDWIDEKLGIEGAENLRSGSSVSNLSLDIARYMGCNPIIVIGQNLSFPNLESYADGAVLKQEQDRHIQQCVENSNKYYVLEKDIDGNDVYTTHSMLSIRFYFEEYIKNHPDRLYLNGSEEGLPIKGMKNMPLKEIVEKYCTKEYDIKGILDKKFKEEFEAENVKAKEIKIRRILEDIHKESTEIRQKAIKRIDLILDILSNIRGSHNDKWEEIDRLTDEIESSDLYKYFVEPLSKYFIQAVKNERERKMESIPDIQERLKYLYEGLLIQYVEVKDKIVLIDDLSQKIIENIDKKEATKCLSMV”, which “soluble on expression in E. coli” value is on record?
Answer: soluble

Question: Which “soluble on expression in E. coli” value does the source give for “LPSPSRQASTRRMSIGESIDGKINDWEEPRLDIEGFVVDYFTHRIRQNGMEWFGAPGLPSGVQPEHEMMRVMGTIFEKKHAENFETFSEQLLAVPRISFSLYQDVVRTVGNAQTDQSPMSYGRLIGLISFGGFVAAKMMESVELQGQVRNLFVYTSLFIKTRIRNNWKEHNRSWDDFMTLGKQMKEDYERAEAEKVGRRKQNRR” here?
Answer: soluble

Question: With “LPTGIIIAATPLGNIGDASPRLVHALANATVVAAEDTRRTASLAAALGVEIKGQLVSNFDHNEQARVGKLIEAARTGTVLVVSDAGMPVVSDPGFALIDAAHDANIPVTCFPGPS” as the sequence, how does the “soluble on expression in E. coli” value read?
Answer: not soluble
